Laboratory results as given in patent publication US20240376151A1, “STAPLED PEPTIDES AND METHODS THEREOF” (FOG PHARMACEUTICALS, INC., priority 2022, published 2024).

Molecular target: T1, RNF31 PUB domain (Homo sapiens, UniProt Q96EP0)
T1 construct: MBP-TEV (N, cleaved yes); made in house; host or cells: E. coli BL21 (DE3) pLysS
T1 sequence (Q96EP0 1-179): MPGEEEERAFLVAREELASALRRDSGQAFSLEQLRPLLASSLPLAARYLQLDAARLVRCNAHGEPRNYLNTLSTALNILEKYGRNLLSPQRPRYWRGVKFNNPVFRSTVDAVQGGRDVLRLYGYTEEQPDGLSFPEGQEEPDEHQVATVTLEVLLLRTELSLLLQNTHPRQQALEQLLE
Test: Phage Library Screening with NGS, RNF31 PUB domain
Assay type: binding
Conditions: for Phage library screen NGS readout, Target Concentration 10 / Phage library screen NGS readout, Target Concentration 30 / Phage library screen NGS readout, Target Concentration 100 / Phage library screen NGS readout, Target Concentration 300 / Phage library screen NGS readout, Target Concentration 1000: RNF31 PUB domain clusters C41-C45; for Phage library screen NGS readout, BLANK: clusters C41-C45

[1] = target concentration 1000, first column
[2] = target concentration 1000, second column

Sequence | Phage library screen NGS readout, Target Concentration 10 | Phage library screen NGS readout, Target Concentration 30 | Phage library screen NGS readout, Target Concentration 100 | Phage library screen NGS readout, Target Concentration 300 | Phage library screen NGS readout, Target Concentration 1000 [1] | Phage library screen NGS readout, Target Concentration 1000 [2] | Phage library screen NGS readout, BLANK (column 1 of 5) | Phage library screen NGS readout, BLANK (column 2 of 5) | Phage library screen NGS readout, BLANK (column 3 of 5) | Phage library screen NGS readout, BLANK (column 4 of 5) | Phage library screen NGS readout, BLANK (column 5 of 5)
DPAWLDCIYAAYDCVTD | 1 | 1 | 1 | 3 | 6 | 4 | 1 | 1 | 1 | 0 | 2
DPAYDWCLYAAEYCHTD | 0 | 0 | 0 | 1 | 7 | 4 | 0 | 0 | 1 | 0 | 0
DPALDYCLYAAYDCMYA | 0 | 0 | 0 | 3 | 5 | 12 | 0 | 3 | 0 | 0 | 0
DPAIAQCMLAAQVCSTY | 2 | 0 | 0 | 5 | 54 | 34 | 1 | 0 | 0 | 0 | 0
DPAIYQCSLAADICSTY | 1 | 3 | 3 | 3 | 7 | 8 | 2 | 2 | 0 | 0 | 0
DPAIQECLLAAATCWTY | 0 | 0 | 0 | 2 | 8 | 4 | 0 | 0 | 0 | 0 | 0
DPAYYTCDWAAIYCDYH | 0 | 0 | 0 | 1 | 6 | 6 | 0 | 1 | 0 | 0 | 0
DPAWWSCMYAAWTCDDT | 1 | 10 | 0 | 7 | 14 | 15 | 0 | 2 | 2 | 1 | 1
DPAFWECMYAASDCDAS | 0 | 0 | 1 | 2 | 6 | 4 | 1 | 0 | 0 | 0 | 2
DPAWESCMYAAYDCDNE | 0 | 1 | 0 | 2 | 14 | 5 | 0 | 0 | 0 | 0 | 0
DPAWWNCLYAADECWSW | 0 | 0 | 0 | 3 | 13 | 6 | 0 | 0 | 1 | 0 | 0
DPAYDWCLYAAYQCDQN | 0 | 0 | 0 | 6 | 13 | 40 | 0 | 0 | 0 | 0 | 0
DPAQEECFEAAVFCSYY | 2 | 0 | 2 | 7 | 36 | 20.49 | 0 | 0 | 0 | 0 | 1
DPAFTDCQLAAAVCMTY | 0 | 0 | 3 | 31 | 161 | 145 | 1 | 2 | 0 | 0 | 0
DPAWMQCMYAAWDCNIE | 0 | 0 | 0 | 4 | 6 | 5 | 0 | 0 | 0 | 0 | 0
DPAADDCEWAALYCSFH | 2 | 0 | 0 | 3 | 3 | 8 | 2 | 9 | 0 | 2 | 3
DPAAEDCHIAAMVCMTY | 0 | 4 | 0 | 12 | 46 | 67 | 0 | 0 | 0 | 0 | 0
DPAYSSCSWAAIYCNWT | 1 | 1 | 5 | 2 | 7 | 4 | 1 | 1 | 4 | 2 | 1
